Drawing on PMC9726900 (2022), this text covers Kd for four molecules.

The labels stand for the following.
B1: CHD4(1–1230) (domain or fragment)
chain: MASGLGSPSPCSAGSEEEDMDALLNNSLPPPHPENEEDPEEDLSETETPKLKKKKKPKKPRDPKIPKSKRQKKERMLLCRQLGDSSGEGPEFVEEEEEVALRSDSEGSDYTPGKKKKKKLGPKKEKKSKSKRKEEEEEEDDDDDSKEPKSSAQLLEDWGMEDIDHVFSEEDYRTLTNYKAFSQFVRPLIAAKNPKIAVSKMMMVLGAKWREFSTNNPFKGSSGASVAAAAAAAVAVVESMVTATEVAPPPPPVEVPIRKAKTKEGKGPNARRKPKGSPRVPDAKKPKPKKVAPLKIKLGGFGSKRKRSSSEDDDLDVESDFDDASINSYSVSDGSTSRSSRSRKKLRTTKKKKKGEEEVTAVDGYETDHQDYCEVCQQGGEIILCDTCPRAYHMVCLDPDMEKAPEGKWSCPHCEKEGIQWEAKEDNSEGEEILEEVGGDLEEEDDHHMEFCRVCKDGGELLCCDTCPSSYHIHCLNPPLPEIPNGEWLCPRCTCPALKGKVQKILIWKWGQPPSPTPVPRPPDADPNTPSPKPLEGRPERQFFVKWQGMSYWHCSWVSELQLELHCQVMFRNYQRKNDMDEPPSGDFGGDEEKSRKRKNKDPKFAEMEERFYRYGIKPEWMMIHRILNHSVDKKGHVHYLIKWRDLPYDQASWESEDVEIQDYDLFKQSYWNHRELMRGEEGRPGKKLKKVKLRKLERPPETPTVDPTVKYERQPEYLDATGGTLHPYQMEGLNWLRFSWAQGTDTILADEMGLGKTVQTAVFLYSLYKEGHSKGPFLVSAPLSTIINWEREFEMWAPDMYVVTYVGDKDSRAIIRENEFSFEDNAIRGGKKASRMKKEASVKFHVLLTSYELITIDMAILGSIDWACLIVDEAHRLKNNQSKFFRVLNGYSLQHKLLLTGTPLQNNLEELFHLLNFLTPERFHNLEGFLEEFADIAKEDQIKKLHDMLGPHMLRRLKADVFKNMPSKTELIVRVELSPMQKKYYKYILTRNFEALNARGGGNQVSLLNVVMDLKKCCNHPYLFPVAAMEAPKMPNGMYDGSALIRASGKLLLLQKMLKNLKEGGHRVLIFSQMTKMLDLLEDFLEHEGYKYERIDGGITGNMRQEAIDRFNAPGAQQFCFLLSTRAGGLGINLATADTVIIYDSDWNPHNDIQAFSRAHRIGQNKKVMIYRFVTRASVEERITQVAKKKMMLTHLVVRPGLGSKTGSMSKQELDDILKFGTEELFKDE
B2: CHD4(1–1810) (domain or fragment)
chain: MASGLGSPSPCSAGSEEEDMDALLNNSLPPPHPENEEDPEEDLSETETPKLKKKKKPKKPRDPKIPKSKRQKKERMLLCRQLGDSSGEGPEFVEEEEEVALRSDSEGSDYTPGKKKKKKLGPKKEKKSKSKRKEEEEEEDDDDDSKEPKSSAQLLEDWGMEDIDHVFSEEDYRTLTNYKAFSQFVRPLIAAKNPKIAVSKMMMVLGAKWREFSTNNPFKGSSGASVAAAAAAAVAVVESMVTATEVAPPPPPVEVPIRKAKTKEGKGPNARRKPKGSPRVPDAKKPKPKKVAPLKIKLGGFGSKRKRSSSEDDDLDVESDFDDASINSYSVSDGSTSRSSRSRKKLRTTKKKKKGEEEVTAVDGYETDHQDYCEVCQQGGEIILCDTCPRAYHMVCLDPDMEKAPEGKWSCPHCEKEGIQWEAKEDNSEGEEILEEVGGDLEEEDDHHMEFCRVCKDGGELLCCDTCPSSYHIHCLNPPLPEIPNGEWLCPRCTCPALKGKVQKILIWKWGQPPSPTPVPRPPDADPNTPSPKPLEGRPERQFFVKWQGMSYWHCSWVSELQLELHCQVMFRNYQRKNDMDEPPSGDFGGDEEKSRKRKNKDPKFAEMEERFYRYGIKPEWMMIHRILNHSVDKKGHVHYLIKWRDLPYDQASWESEDVEIQDYDLFKQSYWNHRELMRGEEGRPGKKLKKVKLRKLERPPETPTVDPTVKYERQPEYLDATGGTLHPYQMEGLNWLRFSWAQGTDTILADEMGLGKTVQTAVFLYSLYKEGHSKGPFLVSAPLSTIINWEREFEMWAPDMYVVTYVGDKDSRAIIRENEFSFEDNAIRGGKKASRMKKEASVKFHVLLTSYELITIDMAILGSIDWACLIVDEAHRLKNNQSKFFRVLNGYSLQHKLLLTGTPLQNNLEELFHLLNFLTPERFHNLEGFLEEFADIAKEDQIKKLHDMLGPHMLRRLKADVFKNMPSKTELIVRVELSPMQKKYYKYILTRNFEALNARGGGNQVSLLNVVMDLKKCCNHPYLFPVAAMEAPKMPNGMYDGSALIRASGKLLLLQKMLKNLKEGGHRVLIFSQMTKMLDLLEDFLEHEGYKYERIDGGITGNMRQEAIDRFNAPGAQQFCFLLSTRAGGLGINLATADTVIIYDSDWNPHNDIQAFSRAHRIGQNKKVMIYRFVTRASVEERITQVAKKKMMLTHLVVRPGLGSKTGSMSKQELDDILKFGTEELFKDEATDGGGDNKEGEDSSVIHYDDKAIERLLDRNQDETEDTELQGMNEYLSSFKVAQYVVREEEMGEEEEVEREIIKQEESVDPDYWEKLLRHHYEQQQEDLARNLGKGKRIRKQVNYNDGSQEDRDWQDDQSDNQSDYSVASEEGDEDFDERSEAPRRPSRKGLRNDKDKPLPPLLARVGGNIEVLGFNARQRKAFLNAIMRYGMPPQDAFTTQWLVRDLRGKSEKEFKAYVSLFMRHLCEPGADGAETFADGVPREGLSRQHVLTRIGVMSLIRKKVQEFEHVNGRWSMPELAEVEENKKMSQPGSPSPKTPTPSTPGDTQPNTPAPVPPAEDGIKIEENSLKEEESIEGEKEVKSTAPETAIECTQAPAPASEDEKVVVEPPEGEEKVEKAEVKERTEEPMETEPKGAADVEKVEEKSAIDLTPIVVEDKEEKKEEEEKKEVMLQNGETPKDLNDEKQKKNIKQRFMFNIADGGFTELHSLWQNEERAATVTKKTYEIWHRRHDYWLLAGIINHGYARWQDIQNDPRYAILNEPFKGEMNRGNFLEIKNKFLARRFKLLEQALVIEEQLRRAAYLNMSED
B3: CHD4(1–1380) (domain or fragment)
chain: MASGLGSPSPCSAGSEEEDMDALLNNSLPPPHPENEEDPEEDLSETETPKLKKKKKPKKPRDPKIPKSKRQKKERMLLCRQLGDSSGEGPEFVEEEEEVALRSDSEGSDYTPGKKKKKKLGPKKEKKSKSKRKEEEEEEDDDDDSKEPKSSAQLLEDWGMEDIDHVFSEEDYRTLTNYKAFSQFVRPLIAAKNPKIAVSKMMMVLGAKWREFSTNNPFKGSSGASVAAAAAAAVAVVESMVTATEVAPPPPPVEVPIRKAKTKEGKGPNARRKPKGSPRVPDAKKPKPKKVAPLKIKLGGFGSKRKRSSSEDDDLDVESDFDDASINSYSVSDGSTSRSSRSRKKLRTTKKKKKGEEEVTAVDGYETDHQDYCEVCQQGGEIILCDTCPRAYHMVCLDPDMEKAPEGKWSCPHCEKEGIQWEAKEDNSEGEEILEEVGGDLEEEDDHHMEFCRVCKDGGELLCCDTCPSSYHIHCLNPPLPEIPNGEWLCPRCTCPALKGKVQKILIWKWGQPPSPTPVPRPPDADPNTPSPKPLEGRPERQFFVKWQGMSYWHCSWVSELQLELHCQVMFRNYQRKNDMDEPPSGDFGGDEEKSRKRKNKDPKFAEMEERFYRYGIKPEWMMIHRILNHSVDKKGHVHYLIKWRDLPYDQASWESEDVEIQDYDLFKQSYWNHRELMRGEEGRPGKKLKKVKLRKLERPPETPTVDPTVKYERQPEYLDATGGTLHPYQMEGLNWLRFSWAQGTDTILADEMGLGKTVQTAVFLYSLYKEGHSKGPFLVSAPLSTIINWEREFEMWAPDMYVVTYVGDKDSRAIIRENEFSFEDNAIRGGKKASRMKKEASVKFHVLLTSYELITIDMAILGSIDWACLIVDEAHRLKNNQSKFFRVLNGYSLQHKLLLTGTPLQNNLEELFHLLNFLTPERFHNLEGFLEEFADIAKEDQIKKLHDMLGPHMLRRLKADVFKNMPSKTELIVRVELSPMQKKYYKYILTRNFEALNARGGGNQVSLLNVVMDLKKCCNHPYLFPVAAMEAPKMPNGMYDGSALIRASGKLLLLQKMLKNLKEGGHRVLIFSQMTKMLDLLEDFLEHEGYKYERIDGGITGNMRQEAIDRFNAPGAQQFCFLLSTRAGGLGINLATADTVIIYDSDWNPHNDIQAFSRAHRIGQNKKVMIYRFVTRASVEERITQVAKKKMMLTHLVVRPGLGSKTGSMSKQELDDILKFGTEELFKDEATDGGGDNKEGEDSSVIHYDDKAIERLLDRNQDETEDTELQGMNEYLSSFKVAQYVVREEEMGEEEEVEREIIKQEESVDPDYWEKLLRHHYEQQQEDLARNLGKGKRIRKQVNYNDGSQEDRDWQDDQSDNQSDYSVASEEGDEDFDER
B4: CHD4(1–1540) (domain or fragment)
chain: MASGLGSPSPCSAGSEEEDMDALLNNSLPPPHPENEEDPEEDLSETETPKLKKKKKPKKPRDPKIPKSKRQKKERMLLCRQLGDSSGEGPEFVEEEEEVALRSDSEGSDYTPGKKKKKKLGPKKEKKSKSKRKEEEEEEDDDDDSKEPKSSAQLLEDWGMEDIDHVFSEEDYRTLTNYKAFSQFVRPLIAAKNPKIAVSKMMMVLGAKWREFSTNNPFKGSSGASVAAAAAAAVAVVESMVTATEVAPPPPPVEVPIRKAKTKEGKGPNARRKPKGSPRVPDAKKPKPKKVAPLKIKLGGFGSKRKRSSSEDDDLDVESDFDDASINSYSVSDGSTSRSSRSRKKLRTTKKKKKGEEEVTAVDGYETDHQDYCEVCQQGGEIILCDTCPRAYHMVCLDPDMEKAPEGKWSCPHCEKEGIQWEAKEDNSEGEEILEEVGGDLEEEDDHHMEFCRVCKDGGELLCCDTCPSSYHIHCLNPPLPEIPNGEWLCPRCTCPALKGKVQKILIWKWGQPPSPTPVPRPPDADPNTPSPKPLEGRPERQFFVKWQGMSYWHCSWVSELQLELHCQVMFRNYQRKNDMDEPPSGDFGGDEEKSRKRKNKDPKFAEMEERFYRYGIKPEWMMIHRILNHSVDKKGHVHYLIKWRDLPYDQASWESEDVEIQDYDLFKQSYWNHRELMRGEEGRPGKKLKKVKLRKLERPPETPTVDPTVKYERQPEYLDATGGTLHPYQMEGLNWLRFSWAQGTDTILADEMGLGKTVQTAVFLYSLYKEGHSKGPFLVSAPLSTIINWEREFEMWAPDMYVVTYVGDKDSRAIIRENEFSFEDNAIRGGKKASRMKKEASVKFHVLLTSYELITIDMAILGSIDWACLIVDEAHRLKNNQSKFFRVLNGYSLQHKLLLTGTPLQNNLEELFHLLNFLTPERFHNLEGFLEEFADIAKEDQIKKLHDMLGPHMLRRLKADVFKNMPSKTELIVRVELSPMQKKYYKYILTRNFEALNARGGGNQVSLLNVVMDLKKCCNHPYLFPVAAMEAPKMPNGMYDGSALIRASGKLLLLQKMLKNLKEGGHRVLIFSQMTKMLDLLEDFLEHEGYKYERIDGGITGNMRQEAIDRFNAPGAQQFCFLLSTRAGGLGINLATADTVIIYDSDWNPHNDIQAFSRAHRIGQNKKVMIYRFVTRASVEERITQVAKKKMMLTHLVVRPGLGSKTGSMSKQELDDILKFGTEELFKDEATDGGGDNKEGEDSSVIHYDDKAIERLLDRNQDETEDTELQGMNEYLSSFKVAQYVVREEEMGEEEEVEREIIKQEESVDPDYWEKLLRHHYEQQQEDLARNLGKGKRIRKQVNYNDGSQEDRDWQDDQSDNQSDYSVASEEGDEDFDERSEAPRRPSRKGLRNDKDKPLPPLLARVGGNIEVLGFNARQRKAFLNAIMRYGMPPQDAFTTQWLVRDLRGKSEKEFKAYVSLFMRHLCEPGADGAETFADGVPREGLSRQHVLTRIGVMSLIRKKVQEFEHVNGRWSMPELAEVEENKKMSQPGSPSPKT

This assay deals with 46w60 nucleosome (recombinant human histone octamer on Widom 601 DNA with 46-bp and 60-bp flanks), … (human, UniProt P0C0S8 1-130; P62807 1-126; P68431 1-136; P62805 1-103). As to the kind of experiment: MST.
Regarding B1, the Kd was 250 nM. For B2 the value was 150 nM. For B3 the value was 430 nM. Take B4: the Kd turned out to be 210 nM.

What is called Kd is the constant that tells how readily two partners part at equilibrium.
